Source: patent US20220119468A1, “AMYLOID PEPTIDE VARIANTS” (published 2022)

T1: human Islet Amyloid Polypeptide (human)
T1 peptide: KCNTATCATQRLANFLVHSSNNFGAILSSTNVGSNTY


Biological target: T1, human Islet Amyloid Polypeptide
Experiment: cell-based or functional assay
In the case of KCNTATCVTQRLANFLLRSSNNLGAILSPTNVGSNTY [raccoon IAPP], the “cell viability of RIN-m cells (MTT viability assay)” value (from here on “cell viability of RIN-m cells”) is reported as 72 % cell viability. In the case of KCNTATCVTQRLADFLVRSSSNIGAIYSPTNVGSNTY [chicken IAPP], the “cell viability of RIN-m cells” value is reported as 76 % cell viability. With KCNTATCATQRLANFLIRSSNNLGAILSPTNVGSNTY [cat IAPP] the “cell viability of RIN-m cells” value was about 62 % cell viability. With KCNTATCATQRLANFLVRSSNNLGAILSPTNVGSNTY [seal IAPP] the “cell viability of RIN-m cells” value was about 62 % cell viability.
